In the RNAGym collection of RNA variant scans (doi:10.7554/elife.90254):

B1: OR4K15 (parent)
chain: GUUAACGGUCAUAGGCCAUGGAAACUAGGAGCACCAUUUCGCUGCCAGUGAAGAAAUGAACAAAGAAAAUCUGGGCCAGGCAGGCAUCAAAAGAAAUAGUCUUGCGCUCAACCAGAAAGUCUGUAAUCAUUUUAAGGGUA

Variants of: B1
Assay: self-cleavage, relative activity (ratio to wild type); higher = more cleavage; in vitro, sequencing; the parent is a self-cleaving ribozyme

| Variant | self-cleavage |
| --- | --- |
| GUUAACGGUCAUAGGCCAUGGAAACUAGGAGCACCAUUACGCCGCCAGUGAAGAAAUGAACAAAGAAAAUCUGGGCCAGGCAGGCAUCAAAAGAAAUAGUCUUGCGCUCAACCAGAAAGUCUGUAAUCAUUUUAAGGGUA [U39A U43C] | 1.95 |
| GUUAACGGUCAUAGGCCAUGGAAACUAGGAGCACCAUUACGCAGCCAGUGAAGAAAUGAACAAAGAAAAUCUGGGCCAGGCAGGCAUCAAAAGAAAUAGUCUUGCGCUCAACCAGAAAGUCUGUAAUCAUUUUAAGGGUA [U39A U43A] | 1.66 |
| GUUAACGGUCAUAGGCCAUGGAAACUAGGAGCACCAUUACGCUGCCAGUGAAGAAAUGAACAAAGAAAAUCUGGGCCAGGCAGGCAUCAAAAGAAGUAGUCUUGCGCUCAACCAGAAAGUCUGUAAUCAUUUUAAGGGUA [U39A A96G] | 1.56 |
| GUUAACGGUCAUAGGCCAUGGAAACUAGGAGCACCAUUACGCUGCCAGUGAAGAAAUGAACAAAGAAAAUCUGGGCCAGGCAGGCAUCAAUAGAAAUAGUCUUGCGCUCAACCAGAAAGUCUGUAAUCAUUUUAAGGGUA [U39A A91U] | 0.94 |
| GUUAACGGUCAUAGGCCAUGGAAACUAGGAGCACCAUUACGCUGCCAGUGAAGAAAUGAACAAAGAAAAUCUGGGCCAGGCAGGCAUCAAAAGAAAUAGUCUUGCGCUCAACCAGAAAGUCUGUAAUCAUUUUAAGGGUG [U39A A140G] | 1.16 |
| GUUAACGGUCAUAGGCCAUGGAAACUAGGAGCACCAUUACGCUGCCAGUGAAGAAAUGAACAAAGAAAAUCUGGGCCAGGCAGGCAUCAAAAGAAAUAGUCCUGCGCUCAACCAGAAAGUCUGUAAUCAUUUUAAGGGUA [U39A U102C] | 1.55 |
| GUUAACGGUCAUAGGCCAUGGAAACUAGGAGCACCAUUACGCUGCCAGUGAAGAAAUGAACAAAGAAAAUCUGGGCCAGGCAGGCAUCAAAAGAAAUAGUCUUGCGCUCAACCAUAAAGUCUGUAAUCAUUUUAAGGGUA [U39A G115U] | 0.27 |
| GUUAACGGUCAUAGGCCAUGGAAACUAGGAGCACCAUUACGCUGCCAGUGAAGAAAUGAACAAAGAAAAUCUGGGCCAGGCAGGCAUCAAAAGAAAUAGUCUUGCGCUCAACCACAAAGUCUGUAAUCAUUUUAAGGGUA [U39A G115C] | 0.52 |
| GUUAACGGUCAUAGGCCAUGGAAACUAGGAGCACCAUUACGCUGCCAGUGAUGAAAUGAACAAAGAAAAUCUGGGCCAGGCAGGCAUCAAAAGAAAUAGUCUUGCGCUCAACCAGAAAGUCUGUAAUCAUUUUAAGGGUA [U39A A52U] | 1.65 |
| GUUAACGGUCAUAGGCCAUGGAAACUAGGAGCACCAUUACGCUGCCAGUGAAGAAAUGAACAAAGAAAAUCUGGGCCAGGCAGGCAUCAAAAGAAAUAGUCUUGCGCUCAACCAGAAAGUCUGUAAACAUUUUAAGGGUA [U39A U127A] | 1.46 |
| GUUAACGGUCAUAGGCCAUGGAAACUAGGAGCACCAUUACGCUGCCAGUGAAGAAAUGAACAAAGAAAACCUGGGCCAGGCAGGCAUCAAAAGAAAUAGUCUUGCGCUCAACCAGAAAGUCUGUAAUCAUUUUAAGGGUA [U39A U70C] | 0.92 |
| GUUAACGGUCAUAGGCCAUGGAAACUAGGAGCACCAUUACGCUGCCAGUGAAGAAAUGAACAAAGAAAAUCUGGGCCAGGCAGGCAUCAAAAGAAAUAGUCUUGCGCUCAACCAGAUAGUCUGUAAUCAUUUUAAGGGUA [U39A A117U] | 1.81 |
| GUUAACGGUCAUAGGCCAUGGAAACUAGGAGCACCAUUACGCUGCCAGUGGAGAAAUGAACAAAGAAAAUCUGGGCCAGGCAGGCAUCAAAAGAAAUAGUCUUGCGCUCAACCAGAAAGUCUGUAAUCAUUUUAAGGGUA [U39A A51G] | 2.15 |
| GUUAACGGUCAUAGGCCAUGGAAACUAGGAGCACCAUUACGCUGCCAGUGAAGUAAUGAACAAAGAAAAUCUGGGCCAGGCAGGCAUCAAAAGAAAUAGUCUUGCGCUCAACCAGAAAGUCUGUAAUCAUUUUAAGGGUA [U39A A54U] | 1.18 |
| GUUAACGGUCAUAGGCCAUGGAAACUAGGAGCACCAUUACGCUGCCAGUGAAGAAAUGAACAAAGAAAAUCUGGGCCAGGCAGGCAUCAGAAGAAAUAGUCUUGCGCUCAACCAGAAAGUCUGUAAUCAUUUUAAGGGUA [U39A A90G] | 0.95 |
| GUUAACGGUCAUAGGCCAUGGAAACUAGGAGCACCAUUACGCUGCCAGUGAAGAAAUGAACAAAGAAAAUCUGGGCCAGGCAGGCAUCAAAAGAAACAGUCUUGCGCUCAACCAGAAAGUCUGUAAUCAUUUUAAGGGUA [U39A U97C] | 1.85 |
| GUUAACGGUCAUAGGCCAUGGAAACUAGGAGCACCAUUACGCUGCCAGUGAAGAAAUGAACAAAGAAAAUCUGGGCCAGGCAGGCGUCAAAAGAAAUAGUCUUGCGCUCAACCAGAAAGUCUGUAAUCAUUUUAAGGGUA [U39A A86G] | 1.76 |
| GUUAACGGUCAUAGGCCAUGGAAACUAGGAGCACCAUUACGCUGCCAGUGAAGAAAUGAACAAGGAAAAUCUGGGCCAGGCAGGCAUCAAAAGAAAUAGUCUUGCGCUCAACCAGAAAGUCUGUAAUCAUUUUAAGGGUA [U39A A64G] | 0.93 |
| GUUAACGGUCAUAGGCCAUGGAAACUAGGAGCACCAUUACGCUGCCAGUGAAGAAAUGAACAAUGAAAAUCUGGGCCAGGCAGGCAUCAAAAGAAAUAGUCUUGCGCUCAACCAGAAAGUCUGUAAUCAUUUUAAGGGUA [U39A A64U] | 1.87 |
| GUUAACGGUCAUAGGCCAUGGAAACUAGGAGCACCAUUACGCUGCCAGUGAAGAAAUGAACAAAGAAAAUCUGGGCCAGGCAGGCAUCAAAAGAAAUAGUCUUGCGCUCAACCAGAAAGUCUGUAAUCAUUUUAGGGGUA [U39A A135G] | 1.75 |
| GUUAACGGUCAUAGGCCAUGGAAACUAGGAGCACCAUUACGCUGCCAGUGAAGAAAUGAACAAAGAAAAUCUGGGCCAGGCAGGCAUCAAAAGAGAUAGUCUUGCGCUCAACCAGAAAGUCUGUAAUCAUUUUAAGGGUA [U39A A95G] | 2.05 |

| Variant | self-cleavage |
| --- | --- |
| GUUAACGGUCAUAGGCCAUGGAAACUAGGAGCACCAUUACGCUGCCAGUGAAGAAAAGAACAAAGAAAAUCUGGGCCAGGCAGGCAUCAAAAGAAAUAGUCUUGCGCUCAACCAGAAAGUCUGUAAUCAUUUUAAGGGUA [U39A U57A] | 1.37 |
| GUUAACGGUCAUAGGCCAUGGAAACUAGGAGCACCAUUACGCUGCCAGUGAAGAAAUGAACAAAGAAAAUCUGGGCCAGGCAGGCAUCAAAAGAAAUAGUCUUGCGCUCAACCAGAAAGUCCGUAAUCAUUUUAAGGGUA [U39A U122C] | 1.39 |
| GUUAACGGUCAUAGGCCAUGGAAACUAGGAGCACCAUUACGCUGCCAGCGAAGAAAUGAACAAAGAAAAUCUGGGCCAGGCAGGCAUCAAAAGAAAUAGUCUUGCGCUCAACCAGAAAGUCUGUAAUCAUUUUAAGGGUA [U39A U49C] | 1 |
| GUUAACGGUCAUAGGCCAUGGAAACUAGGAGCACCAUUACGCUGCCAGUGAAGAAAUGAACAAAGAAAAUCUGGGCCAGGCAGGCAUCAAAAGAAAUAGUCUUGCGCUCAACCAGUAAGUCUGUAAUCAUUUUAAGGGUA [U39A A116U] | 0.09 |
| GUUAACGGUCAUAGGCCAUGGAAACUAGGAGCACCAUUACGCUGCCAGUGAAGAAAUGAACAAAGAAAAUCUGGGCCAGGCAGGCAUCGAAAGAAAUAGUCUUGCGCUCAACCAGAAAGUCUGUAAUCAUUUUAAGGGUA [U39A A89G] | 2.23 |
| GUUAACGGUCAUAGGCCAUGGAAACUAGGAGCACCAUUACGCUGCCAGUGAAGAAAUGAACAAAGAAAAUCUGGGCCAGGCAGGCAUCUAAAGAAAUAGUCUUGCGCUCAACCAGAAAGUCUGUAAUCAUUUUAAGGGUA [U39A A89U] | 2.25 |
| GUUAACGGUCAUAGGCCAUGGAAACUAGGAGCACCAUUACGCUGCCAGUGAAGAAAUGAACAAAGAAAAUCUGGGCCAGGCAGGCAUCAAAAGAAAUAGUCUCGCGCUCAACCAGAAAGUCUGUAAUCAUUUUAAGGGUA [U39A U103C] | 2.1 |
| GUUAACGGUCAUAGGCCAUGGAAACUAGGAGCACCAUUACGCUGCCAUUGAAGAAAUGAACAAAGAAAAUCUGGGCCAGGCAGGCAUCAAAAGAAAUAGUCUUGCGCUCAACCAGAAAGUCUGUAAUCAUUUUAAGGGUA [U39A G48U] | 1.24 |
| GUUAACGGUCAUAGGCCAUGGAAACUAGGAGCACCAUUACGCUGCCAGUGAAGAAAUGAACAAAGAAAAUCUGGGCCAGGCAGGCAUCAAAAGAAAUAGUCUUGCGCUCAAGCAGAAAGUCUGUAAUCAUUUUAAGGGUA [U39A C112G] | 0 |
| GUUAACGGUCAUAGGCCAUGGAAACUAGGAGCACCAUUACGCUGCCAGUGAAGAAAUGAACAGAGAAAAUCUGGGCCAGGCAGGCAUCAAAAGAAAUAGUCUUGCGCUCAACCAGAAAGUCUGUAAUCAUUUUAAGGGUA [U39A A63G] | 1.95 |
| GUUAACGGUCAUAGGCCAUGGAAACUAGGAGCACCAUUACGCUGCCAGUGAAGAAAUGAACAAAGAAAAUCUGGGCCAGGCAGGCAUCAAAAGAAAUAGUCUUGCGCUCAACCAGAAAGUCUGUAAUCAUUUUAAGGAUA [U39A G138A] | 0.14 |
| GUUAACGGUCAUAGGCCAUGGAAACUAGGAGCACCAUUACGCUGCCAGUGAAGAAAUGAACAAAGAAAAUCUGGGCCAGGCAGGCAUCAAAAGAAAUAGUCUUGCGCUCAACCGGAAAGUCUGUAAUCAUUUUAAGGGUA [U39A A114G] | 0.77 |
| GUUAACGGUCAUAGGCCAUGGAAACUAGGAGCACCAUUACGCUGCCAGUGAAGAAAUGAACAAAGGAAAUCUGGGCCAGGCAGGCAUCAAAAGAAAUAGUCUUGCGCUCAACCAGAAAGUCUGUAAUCAUUUUAAGGGUA [U39A A66G] | 1.87 |
| GUUAACGGUCAUAGGCCAUGGAAACUAGGAGCACCAUUACGCUGCCAGUGAAGAAAUGAACAAAGAAAAUCUGGGCCAGGCAGGCAUCAAAAGAAAUAGUCUUGCGCUCAACCAGAAAGUCUGUUAUCAUUUUAAGGGUA [U39A A125U] | 2.5 |
| GUUAACGGUCAUAGGCCAUGGAAACUAGGAGCACCAUUACGCUGCCAGUGAAGAAAUGAACAAAGAAAAUCUGGGCCAGGCAGGCAUCAAAAGAAAUAGUCUUGCGCUCUACCAGAAAGUCUGUAAUCAUUUUAAGGGUA [U39A A110U] | 2.06 |
| GUUAACGGUCAUAGGCCAUGGAAACUAGGAGCACCAUUACGCUGCCAGUGAAGAAAUGAACAAAGAAAAUCUGGGCCAGGCAGGCAUCAAAAGAAAUAGUCUUGCGCUCGACCAGAAAGUCUGUAAUCAUUUUAAGGGUA [U39A A110G] | 0.04 |
| GUUAACGGUCAUAGGCCAUGGAAACUAGGAGCACCAUUACGCUGCCAGUGAAGAAGUGAACAAAGAAAAUCUGGGCCAGGCAGGCAUCAAAAGAAAUAGUCUUGCGCUCAACCAGAAAGUCUGUAAUCAUUUUAAGGGUA [U39A A56G] | 1.59 |
| GUUAACGGUCAUAGGCCAUGGAAACUAGGAGCACCAUUACGCUGCCAGUGAAGAAAUGAACAAAGAAAAUCUGGGCCAGGCAGGCAUCAAAAGAAAUAGUCUUGCGCUCAGCCAGAAAGUCUGUAAUCAUUUUAAGGGUA [U39A A111G] | 0.02 |
| GUUAACGGUCAUAGGCCAUGGAAACUAGGAGCACCAUUACGCUGCCAGUGAAGAAAUGAACAAAGAAGAUCUGGGCCAGGCAGGCAUCAAAAGAAAUAGUCUUGCGCUCAACCAGAAAGUCUGUAAUCAUUUUAAGGGUA [U39A A68G] | 1.32 |
| GUUAACGGUCAUAGGCCAUGGAAACUAGGAGCACCAUUACGCUGCCAGUGAAGAAAUGAACGAAGAAAAUCUGGGCCAGGCAGGCAUCAAAAGAAAUAGUCUUGCGCUCAACCAGAAAGUCUGUAAUCAUUUUAAGGGUA [U39A A62G] | 1.21 |
